Columns and labels:
[1] = biological target: T1, human DPP IV recombinant protein (human, UniProt P27487 29-766); assay: ELISA, coated human DPP IV, HA-His6-tagged VHH extract, anti-HA detection
T1 construct: extracellular domain; Bought protein; also called Dipeptidyl amino-peptidase IV
Description: (§1) The day before measurement, 0.1 μg recombinant protein at a concentration of 1 μg/mL in 100 mM NaHCO₃, pH 8.2 was coated in a 96-well ELISA plate (Nunc MaxiSorp). Per VHH clone also a blank coated well was foreseen (only buffer). The wells were overcoated with protein-free T20 (PBS) blocking buffer (Pierce). After washing with PBS, pH7.4, 0.05% Tween, VHH-containing bacterial freeze-thaw extract was added to every well. Binding of HA-His₆-tagged VHHs was detected by using mouse anti-HA.11 epitope tag (clone 16B12, Biolegend) as the primary Ab and goat anti-mouse IgG (whole molecule) alkaline phosphatase conjugate (Sigma-Aldrich) as the secondary Ab, with thorough washing with PBS, pH 7.4, 0.05% Tween in between. Signals were developed using phosphatase substrate (Sigma-Aldrich) in AP blot buffer (100 mM NaCl, 50 mM MgCl₂, 100 mM Tris, pH 9.5). The absorbance was determined at 405 nm using an absorbance microplate reader (Molecular Devices). Per clone the ratio was determined between the absorbance in the antigen-coated well versus the well without antigen.

[2] = biological target: T2, human FAP recombinant protein (human, UniProt Q12884 26-760); assay: ELISA, coated human FAP recombinant protein, HA-His6-tagged VHH extract, anti-HA detection
T2 construct: The protein was biotinylated with sulfo-NHS-SS-biotin for bio-layer interferometry; also called extracellular domain of human FAP with N-terminal His6-tag
T2 sequence: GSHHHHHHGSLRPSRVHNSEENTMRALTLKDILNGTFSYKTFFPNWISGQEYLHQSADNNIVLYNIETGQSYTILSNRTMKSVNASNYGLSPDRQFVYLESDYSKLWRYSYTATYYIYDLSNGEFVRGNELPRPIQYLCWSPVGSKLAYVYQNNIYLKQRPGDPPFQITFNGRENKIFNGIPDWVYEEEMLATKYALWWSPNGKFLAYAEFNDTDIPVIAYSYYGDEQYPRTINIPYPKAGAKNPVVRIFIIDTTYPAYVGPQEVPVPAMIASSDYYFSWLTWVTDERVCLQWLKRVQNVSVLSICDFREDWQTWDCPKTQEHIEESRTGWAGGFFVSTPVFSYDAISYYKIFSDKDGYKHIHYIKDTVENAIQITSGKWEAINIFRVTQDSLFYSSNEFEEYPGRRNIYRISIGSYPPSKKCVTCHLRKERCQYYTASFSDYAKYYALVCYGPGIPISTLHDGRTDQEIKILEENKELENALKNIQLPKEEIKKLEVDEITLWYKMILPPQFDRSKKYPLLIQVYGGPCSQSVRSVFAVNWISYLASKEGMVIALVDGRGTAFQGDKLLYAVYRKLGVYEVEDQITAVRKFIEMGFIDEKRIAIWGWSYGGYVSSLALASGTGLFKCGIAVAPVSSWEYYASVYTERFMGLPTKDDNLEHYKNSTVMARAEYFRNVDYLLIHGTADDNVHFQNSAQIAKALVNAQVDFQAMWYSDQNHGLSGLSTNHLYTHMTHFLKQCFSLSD
Description: as §1

[3] = biological target: T3, murine FAP recombinant protein (murine, UniProt P97321 26-761); assay: ELISA on coated recombinant protein, VHH-containing bacterial extract, anti-HA detection, signal-to-background ratio
T3 construct: The protein was biotinylated for bio-layer interferometry; also called extracellular domain of murine FAP with N-terminal His6-tag
T3 sequence: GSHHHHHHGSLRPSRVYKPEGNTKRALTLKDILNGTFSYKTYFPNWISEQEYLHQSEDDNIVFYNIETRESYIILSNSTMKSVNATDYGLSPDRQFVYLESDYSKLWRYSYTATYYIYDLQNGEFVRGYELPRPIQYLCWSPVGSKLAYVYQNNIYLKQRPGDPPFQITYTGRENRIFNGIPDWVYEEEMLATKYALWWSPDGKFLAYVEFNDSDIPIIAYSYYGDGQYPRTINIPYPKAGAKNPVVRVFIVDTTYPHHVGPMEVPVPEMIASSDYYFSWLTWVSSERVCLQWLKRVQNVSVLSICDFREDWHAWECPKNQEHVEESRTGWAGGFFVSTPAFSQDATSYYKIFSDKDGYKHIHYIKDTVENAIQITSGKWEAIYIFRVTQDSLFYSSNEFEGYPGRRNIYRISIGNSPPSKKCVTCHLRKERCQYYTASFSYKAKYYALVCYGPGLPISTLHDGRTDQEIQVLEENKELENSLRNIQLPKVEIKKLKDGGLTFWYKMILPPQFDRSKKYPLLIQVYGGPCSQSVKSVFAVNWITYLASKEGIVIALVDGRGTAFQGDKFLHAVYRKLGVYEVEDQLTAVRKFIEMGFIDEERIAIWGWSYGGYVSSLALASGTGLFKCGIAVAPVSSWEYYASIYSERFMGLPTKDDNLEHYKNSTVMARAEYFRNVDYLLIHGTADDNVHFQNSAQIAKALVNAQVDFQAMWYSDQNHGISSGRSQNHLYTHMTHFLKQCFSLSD
Description: as §1

[4] = biological target: T1, human DPP IV recombinant protein; assay: as above
Description: as §1

[5] = biological target: T4, murine FAP expressed on cells (murine, UniProt P97321 1-761); assay: flow cytometry on murine FAP-transfected HEK293 cells, VHH-containing bacterial extract, anti-HA and PE-conjugated secondary detection, Δmfi against cells without VHH
T4 construct: also called murine FAP cell surface protein
T4 sequence: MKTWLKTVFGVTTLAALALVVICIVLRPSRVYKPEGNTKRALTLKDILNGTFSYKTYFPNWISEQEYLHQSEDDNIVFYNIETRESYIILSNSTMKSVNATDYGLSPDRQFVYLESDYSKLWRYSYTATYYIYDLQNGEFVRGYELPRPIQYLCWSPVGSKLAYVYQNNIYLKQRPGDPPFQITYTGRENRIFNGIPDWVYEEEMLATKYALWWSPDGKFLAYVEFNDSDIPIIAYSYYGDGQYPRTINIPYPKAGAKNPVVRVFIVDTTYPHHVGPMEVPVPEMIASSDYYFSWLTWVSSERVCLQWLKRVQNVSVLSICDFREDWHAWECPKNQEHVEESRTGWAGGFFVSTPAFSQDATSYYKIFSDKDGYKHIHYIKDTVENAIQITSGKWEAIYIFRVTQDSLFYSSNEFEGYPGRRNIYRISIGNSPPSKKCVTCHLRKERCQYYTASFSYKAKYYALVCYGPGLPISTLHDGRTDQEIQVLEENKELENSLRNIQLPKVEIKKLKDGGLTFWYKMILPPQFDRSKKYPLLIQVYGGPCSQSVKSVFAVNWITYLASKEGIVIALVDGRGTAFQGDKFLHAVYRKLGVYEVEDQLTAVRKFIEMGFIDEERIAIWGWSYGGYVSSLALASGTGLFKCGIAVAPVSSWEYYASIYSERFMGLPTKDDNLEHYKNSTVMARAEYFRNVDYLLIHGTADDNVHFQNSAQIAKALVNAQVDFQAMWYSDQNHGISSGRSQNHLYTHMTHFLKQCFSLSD
Description: The cell binding was tested by flow cytometry experiments. Per test condition 1×10⁵ to 2×10⁵ cells, washed in PBS, 0.5% BSA, were pelleted in the well of a 96-well U-bottom plate. The cell pellets were resuspended and incubated with the VHH-containing bacterial freeze-thaw extracts (diluted in PBS, 0.5% BSA). Binding of HA-His₆-tagged VHHs was detected by using mouse anti-HA.11 epitope tag (clone 16B12, Biolegend) as the primary detection antibody and PE-conjugated rat anti-mouse IgG1 (clone A85-1, BD Pharmingen) as the secondary detection antibody, with washing with PBS, 0.5% BSA in between, and finally resuspended in PBS, 0.5% BSA.
Flow cytometry was performed on a FACS Canto II (BD Biosciences). Data were analyzed using FlowJo software. Based on the forward scatter-side scatter plot a single cell gate was drawn. The median fluorescence intensity was determined on a histogram for the phycoerythrin signal of the single cells. The difference in median fluorescence intensity (A mfi) was calculated relative to a test condition without incubation of VHHs (cells+primary Ab+secondary Ab), and are shown in FIG. 3.

[6] = biological target: T2, human FAP recombinant protein; assay: bio-layer interferometry, biotinylated human FAP on sensor
Description: The kinetic parameters of antigen binding by purified VHHs were determined via bio-layer interferometry with an Octet RED96 instrument (ForteBio). The assay was performed at 25° C. with shaking at 1000 rpm. Streptavidin coated SA sensors were equilibrated in assay buffer (HBS supplemented with 0.5% BSA, 0.1% Tween), before loading for 5 min with the biotinylated FAP recombinant protein at a concentration of 5 μg/ml. His₆-tagged VHHs were analyzed in a threefold serial dilution from 30 nM to 0.4 nM in assay buffer (except for VHH B3 binding murine FAP recombinant protein, for which a fivefold serial dilution from 1000 nM to 1.6 nM was employed). First the baseline was measured for 180 s in assay buffer, followed by 5 subsequent association phases of 180 s with the VHH preparations in increasing order of concentration, with 75 s intermediate dissociation phases in assay buffer in between, and a final dissociation phase in assay buffer of 30 min. […]
Binding curves were exported and analyzed using the BIAevaluation analysis software (GE Healthcare). […]
(§2) Table 7 gives an overview of the kinetic parameters of antigen binding for His₆-tagged VHHs B1, B2, B3 and B4 (SEQ ID NO: 21-24), as determined by bio-layer interferometry with biotinylated human or murine FAP recombinant protein that was loaded on the sensor.

[7] = biological target: T2, human FAP recombinant protein; assay: bio-layer interferometry (Octet RED96), biotinylated human FAP on streptavidin sensor, kinetic titration, 25 °C
Description: (§3) The kinetic parameters of antigen binding by purified VHHs were determined via bio-layer interferometry with an Octet RED96 instrument (ForteBio). The assay was performed at 25° C. with shaking at 1000 rpm. Streptavidin coated SA sensors were equilibrated in assay buffer (HBS supplemented with 0.5% BSA, 0.1% Tween), before loading for 5 min with the biotinylated FAP recombinant protein at a concentration of 5 μg/ml. His₆-tagged VHHs were analyzed in a threefold serial dilution from 30 nM to 0.4 nM in assay buffer (except for VHH B3 binding murine FAP recombinant protein, for which a fivefold serial dilution from 1000 nM to 1.6 nM was employed). First the baseline was measured for 180 s in assay buffer, followed by 5 subsequent association phases of 180 s with the VHH preparations in increasing order of concentration, with 75 s intermediate dissociation phases in assay buffer in between, and a final dissociation phase in assay buffer of 30 min. In every assay a reference sensor loaded with FAP recombinant protein was included that was incubated in assay buffer during the association phases.
(§4) Binding curves were exported and analyzed using the BIAevaluation analysis software (GE Healthcare). First the y-axes of the different curves were aligned to the median of the last 5 s of the baseline measurement. Subsequently, the sensorgram of the reference sensor was subtracted from all other sensorgrams. The resulting binding curve was fitted using a general fit with the ‘kinetic titration with drift’ binding model (1:1 (antigen:analyte) model; Karlsson, R. et al (2006), Analyzing a kinetic titration series using affinity biosensors. Analytical Biochemistry 349: 136-147), with Rmax fitted global, RI local and drift set to 0.
as §2

[8] = biological target: T3, murine FAP recombinant protein; assay: bio-layer interferometry (Octet RED96), biotinylated murine FAP on streptavidin sensor, kinetic titration, 25 °C
Description: as §3, §4, §2

T1 sequence (P27487 29-766): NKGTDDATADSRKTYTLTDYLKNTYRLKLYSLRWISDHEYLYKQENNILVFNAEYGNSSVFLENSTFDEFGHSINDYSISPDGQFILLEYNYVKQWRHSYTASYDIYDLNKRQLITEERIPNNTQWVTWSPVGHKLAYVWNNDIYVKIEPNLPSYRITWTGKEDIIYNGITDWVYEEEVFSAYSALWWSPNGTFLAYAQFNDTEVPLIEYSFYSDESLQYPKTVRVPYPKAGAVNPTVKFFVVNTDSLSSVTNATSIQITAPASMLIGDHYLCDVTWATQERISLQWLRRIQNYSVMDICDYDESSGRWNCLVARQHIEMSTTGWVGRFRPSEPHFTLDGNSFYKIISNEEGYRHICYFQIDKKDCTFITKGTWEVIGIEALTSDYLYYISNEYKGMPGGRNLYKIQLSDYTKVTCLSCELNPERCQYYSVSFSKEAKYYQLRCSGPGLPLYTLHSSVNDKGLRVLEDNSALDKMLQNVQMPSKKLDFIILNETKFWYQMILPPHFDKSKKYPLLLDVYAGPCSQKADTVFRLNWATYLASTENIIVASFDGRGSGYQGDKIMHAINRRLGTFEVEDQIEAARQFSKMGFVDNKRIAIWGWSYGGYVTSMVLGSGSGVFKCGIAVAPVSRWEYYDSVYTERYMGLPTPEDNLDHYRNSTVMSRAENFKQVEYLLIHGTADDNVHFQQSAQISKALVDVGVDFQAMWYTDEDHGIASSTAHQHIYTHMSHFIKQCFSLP

B1: HA-His6-tagged VHH B3 (VHH)
VHH: QVQLQESGGGLVQAGGSLRLSCAVSGRLFSTNAMGWYRQAPGKQRELVAGITGGDRSNYADSVKGRFTISRDNGKNTLYLQMNSLKPEDTAVYYCNFYPPIVGDYWGQGTQVTVSS
notes: also called B3 with HA-His6-tag
[1]
  signal-to-background ratio: ~1
[2]
  signal-to-background ratio: > 25
[3]
  binding result: no binding
[4]
  binding result: no binding
[5]
  binding result: no binding

B2: His6-tagged VHH B1 (VHH)
VHH: DVQLVESGGGLVQPGGSLRLSCVASGRLSSSNSMAWYRQVPGKRRELVAGITGGGETNYADFVGGRFTISRDNAKNGLYLQLNGLKPEDTAAYYCNFWPPLINYWGQGTQVTVSS
notes: Purified, unlabelled; used in bio-layer interferometry; also called B1 with His6-tag
[6]
  Kd: < 0.05 nM
[7]
  Kd: 0.0378 nM
  koff: 2.7e-05 s⁻¹
  kon: 700000 M⁻¹ s⁻¹
[8]
  Kd: 0.742 nM
  koff: 0.0014 s⁻¹
  kon: 1.9e+06 M⁻¹ s⁻¹
